In this data set the target is EcoSSB-WT (Escherichia coli, UniProt P0AGE0 SEQ:1-177). Briefly: EMSA; 5% TBE gel. Particulars: tags: N-terminal His6-TEV site removed; commercial EcoSSB-WT also run; chain copies: 4 stated (homotetramer in solution).

B1: 70mer polyT (ssDNA)
DNA: TTTTTTTTTTTTTTTTTTTTTTTTTTTTTTTTTTTTTTTTTTTTTTTTTTTTTTTTTTTTTTTTTTTTTT
Turning to B1, the binding result is reported as “binds”.

The record behind these values is patent publication US20150197796, “SSB METHOD” (OXFORD NANOPORE TECHNOLOGIES LIMITED, published 2015).
